One block for each binder: values may come before it.
Assays:
[1] = molecular target: Recombinant Human TNF-α/TNFSF1A (human, UniProt P01375 77-233); assay: SPR (BIAcore)
Procedure: The BIAcore® assay (BIAcore®, Inc, Piscataway, N.J.) determines the affinity of antibodies with kinetic measurements of on-rate and off-rate constants. Binding of antibodies to a target antigen (for example, a purified recombinant target antigen) is determined by surface plasmon resonance-based measurements with a BIAcore® 1000 or 3000 instrument (BIAcore® AB, Uppsala, Sweden) using running HBS-EP (10 mM HEPES [pH 7.4], 150 mM NaCl, 3 mM EDTA, and 0.005% surfactant P20) at 25° C. […] Unreacted moieties on the biosensor surface are blocked with ethanolamine. Modified carboxymethyl dextran surface in flowcell 2 and 4 is used as a reaction surface. Unmodified carboxymethyl dextran without goat anti-mouse IgG in flow cell 1 and 3 is used as the reference surface. For kinetic analysis, rate equations derived from the 1:1 Langmuir binding model are fitted simultaneously to association and dissociation phases of all eight injections (using global fit analysis) with the use of Biaevaluation 4.0.1 software. Purified antibodies are diluted in HEPES-buffered saline for capture across goat anti-mouse IgG specific reaction surfaces. […] The association and dissociation rate constants, kₒₙ (M⁻¹s⁻¹) and koff (s⁻¹), are determined under a continuous flow rate of 25 μl/minute. Rate constants are derived by making kinetic binding measurements at different antigen concentrations ranging from 10-200 nM. The equilibrium dissociation constant (M) of the reaction between antibodies and the target antigen is then calculated from the kinetic rate constants by the following formula: KD=koff/kₒₙ. Binding is recorded as a function of time and kinetic rate constants are calculated.

biotin-labeled c-Met = biotin-labeled c-Met (UniProt P08581 25-932, limits assumed, biotin-labeled); assay: ELISA, biotin-labeled c-Met detected with streptavidin-HRP; parental full antibody
Procedure: c-Met binding ELISA was performed to characterize the antigen binding property of anti-c-Met half-Igs. 96-well ELISA plates were coated with 100 μl/well 5 μg/ml anti-mouse IgG Fc in PBS at 4° C. overnight. After 3 washes with PBS/0.05% Tween®20, the plates were blocked with 5% milk in PBS for 1 hour at room temperature. After another 3 washes with PBS/0.05% Tween®20, 100 μl c-Met antibody or half-Ig was added to each well followed by an incubation of 1 hour at room temperature. Binding biotin-labeled c-Met was detected by Streptavidin-horseradish peroxidase (KPL, Gaithersburg, Md.) and tetramethylbenzidine (Thermo Scientific, Rockford, Ill.). Final absorbances were acquired at 450 nm after stopping the reactions with 2 mol/L H₂SO₄.

[2] = molecular target: T1, Neonatal Fc receptor (FcRn) on CHO-FcRnGPI cells; assay: flow cytometry on CHO-FcRnGPI cells, pH 6.4
T1 construct: whole, on cells; also called FcRn receptor
Procedure: CHO-FcRnGPI cells (Stable FcRn receptor expressor) and CHO-pBudl l cells (non-FcRn expressor) were aliquotted into 96-well plates at 1×10⁵ cells/well. Cells were resuspended in 150 μl FACS buffer. Anti-c-Met Ab and half-Ig binding proteins were diluted to 100 μg/ml in FACS buffer pH 6.4 and pH 7.4. 30 μl of diluted antibody or half-Ig binding protein was added to each well and incubated on ice for 1 hour. Following 2 washes with FACS buffer, 50 μl of secondary antibody R-phycoerythrin-conjugated AfiniPure F(ab′)₂ Fragment goat anti-human IgG (Jackson ImmunoResearch®, West Grove, Pa.) diluted in FACS buffer pH 6.4 or pH7.4 was added. The mixture was incubated for 30 min on ice. The cells were resuspended in 100 μl PBS with 1% FBS (Invitrogen®, Carlsbad, Calif.) and 2 μg/ml propidium iodide (Invitrogen®, Carlsbad, Calif.) of the corresponding pH. Final FACS data were acquired on a FACScan (Becton Dickinson, Franklin Lakes, N.J.).

[3] = molecular target: T2, cell surface CD28 on Jurkat E6-1 cells (UniProt P10747 19-220, limits assumed); assay: flow cytometry on Jurkat E6-1 cells
T2 construct: whole, on cells; Jurkat is a human cell line
Procedure: Jurkat E6-1 cells (ATCC, Manassas, Va.) were harvested and washed with PBS, and resuspended in ice cold PBS with 10% FCS (GIBCO®) at 2×10⁷ cells/ml. Anti-CD28 antibodies or half-Ig binding protein (1 μl) was added to tubes containing 100 μl of cell suspension, then incubated on ice for 30 min. The cells were washed 3 times and resuspended in ice cold PBS, then stained with PE labeled anti-human IgG1 antibody (Southern Biotech, Birmingham, Ala.) according to manufacturer's instructions. After secondary staining, the cells were washed and resuspended in ice cold PBS with 10% FCS. FACS analysis was performed on a FACScan (Becton Dickinson, Franklin Lakes, N.J.).

Sequence of biotin-labeled c-Met (P08581 25-932 limits assumed): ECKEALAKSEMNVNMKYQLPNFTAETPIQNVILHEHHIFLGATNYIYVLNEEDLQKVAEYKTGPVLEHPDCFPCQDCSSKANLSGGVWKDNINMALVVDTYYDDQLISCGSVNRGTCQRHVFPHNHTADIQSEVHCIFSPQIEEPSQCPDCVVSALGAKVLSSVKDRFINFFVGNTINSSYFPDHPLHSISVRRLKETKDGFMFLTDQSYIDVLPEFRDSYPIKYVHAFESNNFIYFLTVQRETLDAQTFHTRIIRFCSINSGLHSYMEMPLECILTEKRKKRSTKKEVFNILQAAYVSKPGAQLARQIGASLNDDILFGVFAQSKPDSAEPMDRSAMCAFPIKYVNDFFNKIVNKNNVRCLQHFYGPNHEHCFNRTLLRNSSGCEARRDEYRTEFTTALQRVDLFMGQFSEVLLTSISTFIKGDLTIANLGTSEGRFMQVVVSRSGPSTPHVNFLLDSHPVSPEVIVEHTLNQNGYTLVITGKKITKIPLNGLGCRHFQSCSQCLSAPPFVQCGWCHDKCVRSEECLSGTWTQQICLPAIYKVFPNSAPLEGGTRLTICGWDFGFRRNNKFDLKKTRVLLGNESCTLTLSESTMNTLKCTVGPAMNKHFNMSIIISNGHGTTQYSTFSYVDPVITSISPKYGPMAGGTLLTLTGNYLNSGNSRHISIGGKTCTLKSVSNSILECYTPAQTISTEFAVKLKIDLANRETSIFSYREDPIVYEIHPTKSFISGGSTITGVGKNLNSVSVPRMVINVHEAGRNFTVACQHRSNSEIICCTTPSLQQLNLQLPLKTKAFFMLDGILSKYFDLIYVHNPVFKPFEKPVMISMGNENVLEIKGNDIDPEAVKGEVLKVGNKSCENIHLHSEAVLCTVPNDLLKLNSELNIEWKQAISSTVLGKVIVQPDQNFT
Sequence of Recombinant Human TNF-α/TNFSF1A (P01375 77-233 limits assumed): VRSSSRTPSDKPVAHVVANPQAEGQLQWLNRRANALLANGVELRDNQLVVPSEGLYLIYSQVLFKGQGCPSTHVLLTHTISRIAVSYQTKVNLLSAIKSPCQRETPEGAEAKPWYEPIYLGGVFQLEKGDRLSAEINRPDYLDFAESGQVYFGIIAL

kon [1]: 1.9e+06 M⁻¹ s⁻¹
B1: ½ hTNFaR Fc (Fc fusion)
chain: LPAQVAFTPYAPEPGSTCRLREYYDQTAQMCCSKCSPGQHAKVFCTKTSDTVCDSCEDSTYTQLWNWVPECLSCGSRCSSDQVETQACTREQNRICTCRPGWYCALSKQEGCRLCAPLRKCRPGFGVARPGTETSDVVCKPCAPGTFSNTTSSTDICRPHQICNVVAIPGNASMDAVCTSTSPTRSMAPGAVHLPQPVSTRSQHTQPTPEPSTAPSTSFLLPMGPSPPAEGSTGDEPKSSDKTHTSPPSPAPELLGGPSVFLFPPKPKDTLMISRTPEVTCVVVDVSHEDPEVKFNWYVDGVEVHNAKTKPREEQYNSTYRVVSVLTVLHQDWLNGKEYKCKVSNKALPAPIEKTISKAKGQPREPQVYTLPPSREEMTKNQVSLTCLVKGFYPSDIAVEWESNGQPENNYKTTPPVLDSDGSFRLYSKLTVDKSRWQQGNVFSCSVMHEALHNHYTQKSLSLSPGK
notes: Half receptor-Fc with Fc-Mut18; 55 % half-Ig by SEC; also called half hTNFaR Fc

EC50 (biotin-labeled c-Met): 0.36 nM
EC50 [2]: 51.8 nM
B2: Anti-c-Met Ig (parental 5D5 anti-cMet antibody) (antibody, human IgG1, kappa)
heavy: not shown
light: DFMMSQSPSSLTVSVGEKVTVSCKSSQSLLYTSSQKNYLAWYQQKPGQSPKLLIYWASTRESGVPDRFTGSGSGTDFTLTITSVKADDLAVYYCQQYYAYPWTFGGGTKLELKRTVAAPSVFIFPPSDEQLKSGTASVVCLLNNFYPREAKVQWKVDNALQSGNSQESVTEQDSKDSTYSLSSTLTLSKADYEKHKVYACEVTHQGLSSPVTKSFNRGEC
notes: Mouse 5D5 variable domains cloned into human Cg1 (z, non-a) and human Ck vectors; also called cMet mAb; wild-type c-Met antibody

binding result [3]: binds
B3: Anti-CD28 Ig (parental antibody 9.3) (antibody, human IgG1, kappa, V domains shown)
VH: QVKLQQSGAELVKPGASVRLSCKASGYTFTEYIIHWIKLRSGQGLEWIGWFYPGSNDIQYNAKFKGKATLTADKSSSTVYMELTGLTSEDSAVYFCARRDDFSGYDALPYWGQGTMVTVSS
VL: DIQMTQSPASLSVSVGETVTITCRTNENIYSNLAWYQQKQGKSPQLLIYAATHLVEGVPSRFSGSGSGTQYSLKITSLQSEDFGNYYCQHFWGTPCTFGGGTKLEIKR
notes: 9.3 variable domains on human Cg1 (z, non-a) and human Ck; also called anti-CD28 antibody 9.3

Reference: US20120201746A1 (AbbVie / Abbott, published 2012)
